# Assay results from PMC10863865 (PLOS Pathogens, 2024).
# What was measured:
# [1] = target: Gc protein in CCHFV-YL16070-infected Vero E6 cells (Crimean-Congo hemorrhagic fever virus, …, strain); assay: western blot; conditions: one partner purified
# [2] = target: T1, sGc-S-tag (Gc ectodomain of CCHFV-YL16070 with an S-tag) (Crimean-Congo hemorrhagic fever virus, …, strain, biotin (labelled for BLI)); assay: BLI; […] (25 ug/mL), […]; PBS with 0.1% BSA and 0.02% Tween-20; association 600 s, dissociation 600 s; Octet-Red 96; conditions: both partners purified
# T1 construct: not shown: S-tag, N-terminal, kept
Binder,binding result [1],Kd [2]
"Gc8 monoclonal antibody (antibody, V domains shown, also called mAb Gc8; copies: 2 + 2) VH: QVQLQQPGAEVVKPGASVKMSCKASGYTFTSYSMHWVKQTPGQGLEWIGAIYPGNGDTSYNQKFKGKATLTADKSSSTAYMQLSSLTSEDSAGYYCARGDQYYGYFDFWGQGTTLTVSS VL: DIQMTQSPASLSASVGETVTITCRTSENIYSFLAWYQQKQGKSPQRLVSHAKALAEGVPSRFSGSGTGTQFSLKINSLQPEDFGSYYCQHHYGIPLTFGAGTKLELK",binds,0.0834 nM
"Gc13 monoclonal antibody (antibody, V domains shown, also called mAb Gc13; copies: 2 + 2) VH: QVQLQQSGPEVVRPGVSVKISCKGSGYTFTDYATHWVKQSHVKSLEWIGVISTYNGETDCNQKFKGKATMTVDKSSSTAYMELARLTSEDSAIYYCANGYYQAMDYWGQGTSVTVSS VL: DIQMTQTPSSLSASLGDRVTISCRASQDISNYLNWYQQRPDGTLKLLIYYTSRLHSGVPSRFSGSGSGTDYSLTISNLEQEDIATYFCQQGSTLPWTFGGGTKLEIK",binds,0.0324 nM
